The target of data set [1] is T1, C5aR1 (Homo sapiens, UniProt P21730).
T1 sequence (P21730 1-350): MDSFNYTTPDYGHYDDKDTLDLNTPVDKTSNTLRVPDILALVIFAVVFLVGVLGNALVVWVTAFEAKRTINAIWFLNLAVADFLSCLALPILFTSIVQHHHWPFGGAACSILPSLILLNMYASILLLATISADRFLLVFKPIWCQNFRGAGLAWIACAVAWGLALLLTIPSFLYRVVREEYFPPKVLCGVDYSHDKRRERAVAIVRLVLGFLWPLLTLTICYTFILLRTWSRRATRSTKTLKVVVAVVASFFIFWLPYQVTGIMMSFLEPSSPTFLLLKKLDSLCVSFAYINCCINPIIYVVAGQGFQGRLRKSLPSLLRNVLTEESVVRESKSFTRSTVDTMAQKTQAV
In words: GeneBLAzer assay, inhibition of Gα signaling. The format is cell-based. The procedure: The GeneBLAzer assay kit and C5aR1 cell line were commercially available from Thermo Fisher (Catalog #K1544). The assay was performed as recommend by the manufacturer. Briefly, antibodies or antagonists were incubated for 30 minutes at increasing concentrations at 37° C. C5a was then added to the cells and incubated at 37° C. for an additional 4-5 hours. Beta-lactamase substrate was then added and incubated for 2 hours at room temperature. Fluorescent measurements for each well with an excitation/emission of 409/460 (blue) and 409/530 (green) were measured. An increase in the blue to green ratio was proportional to C5aR1 activation and was used to calculate the percent of activation for the cells in each well. The C5aR1 activation profile was monitored under increasing antagonist concentration. The IC50 was determined by plotting the percentage of signal against concentration of the antagonist.
This experiment was done as detailed in Example 2.

Another data set deals with CD11b. In words: Inhibition of CD11b expression in neutrophils. It is filed as cell-based, human. The conditions noted are these: range of C5a concentrations. From the text: CD11b, an integrin receptor, is mobilized to the surface of neutrophils in response to C5a activation and mediates intravascular crawling prior to neutrophil transmigration. CD11 is involved in numerous adhesion-related associations between cells such as monocytes, macrophages, natural killer (NK) cells, and granulocytes.
The experimental details of this determining CD11 expression are described in Example 5.

The test system of the next data set is squirrel monkeys. In words: C5a-induced neutropenia in squirrel monkeys. The conditions noted are these: antibody 10 mg/kg or avacopan 30 mg/kg IV 1 h before 0.1 mg/kg human C5a, 1 min post-C5a. It is filed as in vivo, squirrel monkey. As to the method:
Briefly, three groups of squirrel monkeys were evaluated for inhibition of neutropenia. In the first group, 8 squirrel monkeys were injected with PBS (vehicle), intravenously. In the second group 8 squirrel monkeys were injected with exemplary antibodies at a dose of 10 mg/kg, intravenously. In the third group, group 8 squirrel monkeys were injected with avacopan at a dose of 30 mg/kg, intravenously. One hour after injection of the PBS, exemplary antibodies or avacopan, 0.1 mg/kg of human C5a was injected into the squirrel monkeys. The blood was collected after 1 min, 5 min 15 min, 2 hr and 6 hr after injection of human C5a. The percent change in neutrophils and average change in neutrophils were calculated in all three groups and are shown in FIG. 14B, as scatter plot.

Data set [2] has as its target T1, C5aR1. Kind of data set: β-arrestin2 recruitment, two-subunit luciferase reporter. It is filed as cell-based. Set-up: expressed in transfected cells. The source says: The β-arrestin assay utilized a proprietary two-subunit luciferase reporter system: one subunit is fused to C5aR1 and one subunit is fused to β-arrestin2. When in close proximity, the two subunits formed an enzyme that generates a luminescent signal, used as a proxy for C5aR1-mediated recruitment of β-arrestin2.
The experimental details of this determining β-arrestin recruitment are described in Example 6. […] Table 14 summarizes the […] of inhibition of β-arrestin recruitment.
A general note: Recruitment of arrestin is a read-out of receptor activation apart from second messengers.

The subject of another data set is tMCAO mice. Kind of data set: tMCAO stroke mouse model, infarct volume. It is filed as in vivo. The conditions noted are these: antibodies 20 mg/kg, PMX53 1 mg/kg. The procedure: 1 mg/kg PMX53 was used as a control. The brain was resected, cut into slices and stained with TTC. The stained cross sections were analyzed by imaging.
The next data set deals with U937-C5aR1 cells. In words: Binding to U937-C5aR1 cells. The conditions noted are these: two antibody preparations.
The next data set has as its system human neutrophils. Kind of data set: Binding to human neutrophils. Particulars: two antibody preparations.
Data set [3] can be described thus: Pharmacokinetics in Tg32 mice. The format is in vivo, mouse. Particulars: 5 mg/kg IV. The procedure: (§1) 5 mg/kg of exemplary monospecific and biparatopic antibodies were injected intravenously into Tg32 mice. The amount of the antibody in the serum was evaluated over a period of 500 hours. […] FIG. 16B-16D show the stability of the anti-C5aR1 antibodies in the serum of 5 different mice for 500 hours. […] The tetravalent antibodies have slightly lower persistence in serum as compared to the monospecific antibody. Motavizumab was used as a control.
Tg32 mice are a transgenic model in which human FcRn replaces native mouse FcRn. FcRn is necessary for the bidirectional transport of Abs across cellular barriers, influencing PK. Tg32 mice with human FcRn have been extensively studied and thought to correlate with PK in humans. The goal of this experiment was to assess FcRn-mediated recycling of IgG-scFv vs IgG formats and assess any impact of introducing Fc domain modifications on FcRn mediated recycling.
5 mg/kg of exemplary monospecific and biparatopic antibodies were injected intravenously into Tg32 mice. The percentage of antibody in the serum was determined using art-recognized assays. MVZ-IgG4-VFc17, a motavizumab antibody with IgG4 Fc and same Fc modifications as the C5aR1 antibodies, was used as a control. Further PK/PD analyses were carried out using CERTARA.

Data set [4] is described as follows: Pharmacokinetics in human C5aR1 knock-in mice. Particulars: hC5aR1 mice, 20 mg/kg. The format is in vivo, mouse. As to the method: as §1
Target-Mediated Drug Disposition (TMDD) is evident for both exemplary C5aR1 antibodies with modified Fc domains. TMDD is the phenomenon in which a drug binds with high affinity to its pharmacological target site (such as a receptor) to such an extent that this affects its pharmacokinetic (PK) characteristics. The target binding and subsequent elimination of the drug-target complexes could affect both drug distribution and elimination, and result in nonlinearity of PK in a dose-dependent manner.
The target binding and subsequent elimination of the drug-target complexes could affect both drug distribution and elimination, and result in nonlinearity of PK in a dose-dependent manner. FIG. 30A-30F show antibody persistence was dose-dependent. […] FIG. 30F is in silico graphical representation of isotype control antibody over a period of 500 hours at a concentration of 20 mg/Kg. Non-naïve mice were administered multiple dosing of the mAbs once weekly over 4 total weeks.

Data set [5] deals with T1, C5aR1. Kind of data set: Binding kinetics and internalization with or without sodium azide. Particulars: with or without 20 mM sodium azide. The procedure:
The Example seeks to verify that the internalization of the C5aR1 antibodies is specific and not due to non-specific clustering of the membrane immunoglobulin. Sodium azide is a metabolic inhibitor, and inhibits internalization or endocytosis as these are energy dependent processes. Any metabolic dependency on the internalization of exemplary C5aR1 antibodies were probed using 10 nM C5aR1 antibodies in the presence or absence of 20 mM sodium azide.

We go through 5 molecules from patent US11912781B2, “Humanized complement 5A receptor 1 antibodies and methods of use thereof” (VISTERRA, INC., priority 2021, dated 2024).

One may read the IC50 as the concentration that inhibits the measured activity by half. For the molecule `Cc1ccc(NC(=O)[C@H]2CCCN(C(=O)c3c(C)cccc3F)[C@H]2c2ccc(NC3CCCC3)cc2)cc1C(F)(F)F` [Avacopan], the IC50 was 2.2 nM at C5aR1 [1] (read-out: IC50 (nM) 10 nM C5a, Gα signaling, 10 nM C5a, Table 13); 0.7 nM on C5aR1 [1] (read-out: IC50 (nM) 100 nM C5a, Gα signaling, extrapolated data, 100 nM C5a, Table 13, extrapolated); 9.95 nM at C5aR1 [2] (10 nM C5a, Table 9, read-out: IC50 for β-arrestin signaling); 3.25 nM at C5aR1 [2] (100 nM C5a, Table 9, read-out: IC50 for β-arrestin signaling); 34 nM on C5aR1 [2] (read-out: IC50 (nM) at 100 nM C5a, beta-arrestin inhibition, 100 nM C5a, Table 14). The “inhibition of CD11b expression” value in the data set with CD11b is listed as “only partially potent”. In addition, the “average reduction in neutrophil counts from baseline” value in the data set on squirrel monkeys stood at 59%. Moreover, on C5aR1 [2] (C5a concentrations increase to 10 nM), the “potency in β-arrestin2 recruitment as C5a increases” value is reported as “lost potency”.
As to PMX53 [reference compound], the “infarct volume compared to the vehicle group” value in the data set with tMCAO mice is “only slightly reduced infarct volume”.
In the case of motavizumab [reference compound], the “EC50 of U937-C5aR1 binding” value with U937-C5aR1 cells was “No Binding”. The “EC50 of human neutrophil binding” value in the data set on human neutrophils is “No Binding”.

B1: Isotype CTL: a motavizumab antibody with IgG4 Fc and same Fc modifications as the C5aR1 antibodies, used as a control (antibody, chains of the INN, looked up, V domains shown)
VH: QVTLRESGPALVKPTQTLTLTCTFSGFSLSTAGMSVGWIRQPPGKALEWLADIWWDDKKHYNPSLKDRLTISKDTSKNQVVLKVTNMDPADTATYYCARDMIFNFYFDVWGQGTTVTVSS
VL: DIQMTQSPSTLSASVGDRVTITCSASSRVGYMHWYQQKPGKAPKLLIYDTSKLASGVPSRFSGSGSGTEFTLTISSLQPDDFATYYCFQGSGYPFTFGGGTKVEIK
modifications: IgG4 Fc modifications
notes: a motavizumab antibody with IgG4 Fc and same Fc modifications as the C5aR1 antibodies, used as a control
What is called Cmax is the highest concentration seen after dosing. In data set [3] (GeoMean), B1 registered an AUC0-24 of 1620 µg·h/mL, an AUCinf of 16900 µg·h/mL, an AUClast of 13100 µg·h/mL and a CL of 7.08 mL/day/kg. In data set [3] (GeoMean), the Cmax was 131 µg/mL and the V came out at 0.104 L/kg. Also, in [3] (Median), the t1/2 turned out to be 259 h and the tlast is given as 504 h. In addition, in [4] (GeoMean), the AUC0-24 worked out at 7130 µg·h/mL, the AUCinf was 66200 µg·h/mL, the AUClast was determined as 55800 µg·h/mL and the CL amounted to 7.25 mL/day/kg. Also, in data set [4] (GeoMean), the Cmax worked out at 453 µg/mL and the V came out at 0.06 L/kg. In [4] (Median), the t1/2 is on record as 127 h and the tlast was 504 h.

B2: c2139-e1711: biparatopic anti-C5aR1 antibody, VH1 SEQ ID NO: 14, VL1 SEQ ID NO: 25, VH2 SEQ ID NO: 16, VL2 SEQ ID NO: 17 (antibody, V domains shown)
VH 1: QVQLVQSGAEVKKPGASVKVSCKASGYTFTNYWMHWVRQAPGQGLEWMGYLNPSSGYTKYAQKFQGRVTMTRDTSTSTVYMELSSLRSEDTAVYYCTRSGGDNYGNPYYFDRWGQGTTVTVSS
VL 1: DVQMTQSPSSLSASVGDRVTITCRASQSIVHSNGNTYLHWYQQKPGKAPKFLIYKVSNRFSGVPSRFSGSGSGTDFTLTISSLQPEDFATYYCAQYTLVPLTFGQGTKLEIK
VH 2: EVQLVESGGGLIQPGGSLRLSCAASGFTFNAYAMSWVRQAPGKCLEWVSSISTGGNTYYADSVKGRFTISRDNSKNTLYLQMNSLRAEDTAVYYCTRGYQRFSGFAYWGQGTLVTVSS
VL 2: EIVLTQSPATLSLSPGERATLSCRSSQSLVHSNGNTYLNWYQQKPGQAPRLLIYKVSNRLSGIPARFSGSGSGTDFTLTISSLEPEDFAVYYCSQSTHVPYTFGCGTKLEIK
For B2, the internalization result with C5aR1 [5] is on record as “undergoes internalization during association”.
